Results as given in patent US10184140B2, “Materials and methods for production of bi-functional fatty acids in recombinant bacteria” (IOWA STATE UNIVERSITY RESEARCH FOUNDATION, INC., priority 2013, dated 2019).
Entries after “also recorded” stand apart in the source; their conditions may differ. Like-named read-outs stand apart in the source and are kept apart here.

Legend:
[1] = assay type: binding; conditions: ligand in 50-fold molar excess, relative to water control
[2] = Kinetic parameters of aaKASIII and ecKASIII (spectrophotometric enzyme assay); assay type: biochemical
Procedure: Therefore, aaKASIII was assayed with 3-hydroxybutyryl-CoA as a substrate, and its specific activity was determined using an in vitro spectrophotometric enzyme assay. KASIII enzyme assays were carried out spectrophotometrically using 400 μM ACP, 400 μM malonyl-CoA, 10-400 μM various acyl-CoAs, 400 μM NADPH, 1 mM DTT, 6 mg/ml FabD, 1.5 mg/ml FabG, and either 4 mg/ml of aaKASIII or 9.5 mg/ml of ecKASIII. The specific activity for this reaction catalysed by aaKASIII was 5-fold and 3-fold higher with isobutyryl-CoA and 3-hydroxybutyryl-CoA, respectively, than that obtained with acetyl-CoA.

[3] = test system: B. subtilis ΔyjaXΔyhfB mutant strain; test: Genetic complementation of B. subtilis ΔyjaXΔyhfB double mutant with KASIII genes; conditions: grown without exogenous branched-chain fatty acids, IPTG induced
Procedure: Genetic complementation of the B. subtilis ΔyjaXΔyhfB double mutant strain with aaKASIII, taKASIII or ecKASIII expression vectors was conducted using pUCB-erm-derived plasmids carrying the different KASIII ORF sequences. In these vectors each of the different KASIII ORFs were under the control of the Pspac promoter and were inserted between the downstream and upstream DNA fragments of the 135-bp ORF in the ΔyhfB allele of the ΔyjaXΔyhfB::erm double mutant.
The B. subtilis ΔyjaXΔyhfB mutant strain was used as a vehicle to screen for KASIII enzymes that can utilize branched-chain acyl-CoA substrates and can therefore synthesize branched-chain fatty acids, thereby rescuing the lethal ΔyjaXΔyhfB deletion phenotype. […] The resulting three B. subtilis ΔyjaXΔyhfB mutant strains, each expressing one of the recombinant KASIII genes (due to the inclusion of the inducer IPTG in the media), were grown in the absence of exogenously supplied branched-chain fatty acids.

[4] = Saturation Transfer Difference NMR of KASIII enzymes with acetyl-CoA or isobutyryl-CoA; assay type: binding
Procedure: NMR experiments were performed at 25° C. on a Bruker AV700 MHz spectrometer equipped with a 5 mm HCN cryoprobe. Samples for STD NMR experiments were prepared in 0.1 M sodium phosphate buffer (pH 7.4) with 5% D2O. The protein/ligand ratio was set as 1:100 with KASIII concentration in the 20-25 μM range. Saturation was applied as CW pulse with a power of 58-60 Hz, with on-resonance pulses at 0.62 ppm and 6.86 ppm for upfield and downfield, respectively. The off-resonance pulse was applied at 45 ppm. 3-9-19 WATERGATE suppression was used with a T1-ρ filter. Saturation time of five seconds with an additional delay of 5.1 seconds was used. A set of three replicates was acquired, with 32 scans in each replicate, for each STD NMR experiment of KASIII wild-type or mutated enzyme with a ligand, which was either acetyl-CoA or isobutyryl-CoA (Sigma-Aldrich, St. Louis, Mo.). The reference and the saturated spectra were obtained in an interleaved manner. Resonance assignments of 1H NMR spectra of free ligands were completed using ID 1H and COSY.
Control experiments were carried out by applying on- and off-resonance saturation pulses either to the ligand in the absence of protein, or to the ligand in the presence of denatured protein.
Relative STD effects (ASTD) were calculated according to the equation ASTD=(Io−Isat)/Io where Isat is the signal intensity of the saturated spectrum and Io is the signal intensity of the reference spectrum (Mayer et al., J. Am. Chem. Soc. 123: 6108-6117 (2001)). STD amplification factor was calculated according to the equation: STDaf=ASTD×molar ligand excess.
STD NMR experiments elucidated interactions of these purified enzymes (both wild-type and mutated) with straight-chain substrate (acetyl-CoA) and branched-chain substrate (isobutyryl-CoA) and enabled mapping of binding epitopes on the two substrates. Relative saturation transfer to each of the binding epitopes was measured and converted to the STD amplification factor (STDaf), which is an indicator of ligand binding (Mayer et al., J. Am. Chem. Soc. 123: 6108-6117 (2001)). Ligand epitopes with high STDaf values are assumed to receive higher saturation transfer from the enzyme, and thus are in close contact with the enzyme.

[5] = Spectrophotometric coupled assay (FabD/FabG, NADPH at 340 nm) of KASIII specific activity with acyl-CoA substrates; conditions: for Specific Activity with Isobutyryl-CoA: substrate isobutyryl-CoA
Procedure: The method comprises (i) incubating holo-ACP, malonyl-CoA, acyl-CoA, NADPH, and malonyl-CoA:ACP transacylase (FabD), (ii) adding KASIII and 3-ketoacyl-ACP reductase (FabG), and (iii) measuring the change in absorbance at 340 nm when NADPH is converted to NADP+ during reduction of 3-ketoacyl-ACP to 3-hydroxyl-acyl ACP by FabG.
Activity of A. acidocaldarius KASIII with different acyl-CoA substrates (acetyl-CoA, isobutyryl-CoA and 3-hydroxybutyryl-CoA (Sigma-Aldrich)) was ascertained by a coupled assay. The assay was performed in 96-well plate format with three replicates for each reaction condition. In a total volume of 100 μl for each reaction the reaction mix containing 100 μM holo-ACP, 200 μM malonyl-CoA, 10 mM DTT, 50 μM acyl-CoA substrate (either acetyl-CoA, isobutyryl-CoA or 3-hydroxy-butyryl-CoA) and 200 μM NADPH in 0.1 M sodium phosphate buffer (pH 7.2) was pre-incubated with 60 μg of FabD for two minutes. The reaction was started by the addition of 30 μg of FabG and varying concentrations of A. acidocaldarius (0.5-15 μg). Change in absorbance of NADPH that was being converted to NADP^+ during reduction of 3-ketoacyl-ACP 3-hydroxy-acyl-ACP by FabG was recorded at 340 nm using a Biotek multi-plate reader.
Spectrophotometric assay was used to assess the activity of A. acidocaldarius KASIII with various acyl-CoA substrates. The assay coupled the appearance of the KASIII-product (3-ketoacyl-ACP) to the oxidation of NADPH, catalyzed by 3-ketoacyl-ACP reductase (FabG).
KASIII enzymatic activity was ascertained via spectrophotometric assay, which coupled the appearance of 3-ketoacyl-ACP to the oxidation of NADPH, using the E. coli FabG protein to reduce 3-ketoacyl-ACP to 3-hydroxyacyl-ACP. The assay was performed in a 96-well plate-format with three technical replicates for each reaction condition. In a total volume of 100 μl for each reaction, the reaction mix contained 100 μM holo-ACP, 200 μM malonyl-CoA, 10 mM DTT, 50 μM acyl-CoA substrate, and 200 μM NADPH in 0.1 M sodium phosphate buffer (pH 7.2). This mixture was pre-incubated with 60 μg of FabD for two minutes to initiate synthesis of malonyl-ACP from malonyl-CoA and holo-ACP. The reaction was then started by the addition of 30 μg of FabG and varying concentrations of KASIII enzyme (0.5-15 μg). As KASIII catalysed the condensation of acyl-CoA with malonyl-ACP to form 3-ketoacyl-ACP, FabG reduced the 3-ketoacyl-ACP intermediate to 3-hydroxy-acyl ACP in the presence of NADPH.

[6] = Melting temperatures (Tm) of KASIII enzymes without ligand; assay type: physicochemical; conditions: in water, no ligand, baseline Tm
[7] = test system: B. subtilis FabH deletion mutant; test: Fatty acid production by recombinant KASIII in B. subtilis FabH deletion mutant; assay type: cell-based; conditions: B. subtilis FabH deletion mutant rescued by the recombinant KASIII

E. coli KASIII Wild-type: E. coli 3-ketoacyl-ACP synthase III encoded by fabH, GenBank AAG55837.1, amino acid sequence SEQ ID NO:62
Thermal shift: increase in Tm with acetyl-CoA ([1]; listed as ecKASIII): bound; also recorded: positive thermal shifts | Thermal shift: increase in Tm with propionyl-CoA ([1]; listed as ecKASIII): bound; also recorded: positive thermal shifts | Kinetic parameters (whole line) ([2]; substrate 3-OH-butyryl-CoA): not a substrate | Km ([2]; substrate acetyl-CoA): 96.8 ± 4.7 µM | Specific Activity ([2]; substrate acetyl-CoA): 447 ± 68 nmol/mg/min | Vmax ([2]; substrate acetyl-CoA): 0.00033 ± 1e-05 µmol/s | kcal ([2]; substrate acetyl-CoA): 0.0214 ± 0.00093 s⁻¹ | Kinetic parameters (whole line) ([2]; substrate isobutyryl-CoA): not a substrate | Rescue of the lethal phenotype of the B. subtilis ΔyjaXΔyhfB mutant strain [3]: could not | STD amplification factor (STDaf), HAP proton of acetyl-CoA ([4]; protein/ligand 1:100, 25° C.): ~6.0 | STD amplification factor (STDaf), HB proton of isobutyryl-CoA ([4]; protein/ligand 1:100, 25° C.): ~4.0 | STD amplification factor (STDaf), HT proton of acetyl-CoA ([4]; protein/ligand 1:100, 25° C.): ~5.0 | STD amplification factor (STDaf), HT proton of isobutyryl-CoA ([4]; protein/ligand 1:100, 25° C.): 2.5 | Specific Activity with Acetyl-CoA ([5]; substrate acetyl-CoA, n.d. = not detectable): 447 ± 68 nmol/min/mg | Specific Activity with Isobutyryl-CoA ([5]; n.d. = not detectable): 36 ± 14 nmol/min/mg | Melting temperature (Tm) without ligand [6]: 55.0 ± 0.18 °C | Melting temperature (Tm) without ligand ([6]; listed as ecKASIII): ~55.0 °C

B1: B. subtilis KASIIIa M213L: B. subtilis KASIIIA single mutant M213L, amino acid sequence SEQ ID NO:122 (protein)
chain: MKAGILGVGRYIPEKVLTNHDLEKMVETSDEWIRTRTGIEERRIAADDVFSSHMAVAAAKNALEQAEVAAEDLDMILVATVTPDQSFPTVSCMIQEQLGAKKACAMDISAACAGFMYGVVTGKQFIESGTYKHVLVVGVEKLSSITDWEDRNTAVLFGDGAGAAVVGPVSDDRGILSFELGADGTGGQHLYLNEKRHTIMNGREVFKFAVRQLGESCVNVIEKAGLSKEDVDFLIPHQANIRIMEAARERLELPVEKMSKTVHKYGNTSAASIPISLVEELEAGKIKDGDVVVMVGFGGGLTWGAIAIRWGR
modifications: B. subtilis KASIIIA mutant; (213)..(213) methionine at amino acid position 213 replaced with leucine
Decrease in STDaf for acetyl-CoA HT proton ([4]; mutant vs wild-type): 40% | Decrease in saturation transfer/STDaf for isobutyryl-CoA HT and HB protons in comparison to the wild-type ([4]; mutant vs wild-type): 60-70% | Specific Activity with Isobutyryl-CoA ([5]; n.d. = not detectable): 156 ± 47 nmol/min/mg

B2: B. subtilis KASIIIb Wild-type: B. subtilis KASIIIB, bfabHB (yhfB) locus, GenBank CAB12857.1, amino acid sequence SEQ ID NO:66 (protein)
chain: MSKAKITAIGTYAPSRRLTNADLEKIVDTSDEWIVQRTGMRERRIADEHQFTSDLCIEAVKNLKSRYKGTLDDVDMILVATTTSDYAFPSTACRVQEYFGWESTGALDINATCAGLTYGLHLANGLITSGLHQKILVIAGETLSKVTDYTDRTTCVLFGDAAGALLVERDEETPGFLASVQGTSGNGGDILYRAGLRNEINGVQLVGSGKMVQNGREVYKWAARTVPGEFERLLHKAGLSSDDLDWFVPHSANLRMIESICEKTPFPIEKTLTSVEHYGNTSSVSIVLALDLAVKAGKLKKDQIVLLFGFGGGLTYTGLLIKWGM
modifications: B. subtilis
Thermal shift: increase in Tm with 3-hydroxybutyryl-CoA [1]: thermally stabilized | Thermal shift: increase in Tm with butyryl-CoA [1]: ≥ 6 °C | Thermal shift: increase in Tm with crotonyl-CoA [1]: ≥ 6 °C | Thermal shift: increase in Tm with isobutyryl-CoA [1]: ≥ 6 °C | Thermal shift: increase in Tm with isovaleryl-CoA [1]: ≥ 6 °C | Thermal shift: increase in Tm with methylmalonyl-CoA [1]: ≥ 6 °C | Thermal shift: increase in Tm with phenylacetyl-CoA [1]: ≥ 6 °C | Thermal shift: increase in Tm with propionyl-CoA [1]: ≥ 6 °C | Thermal shift: increase in Tm with benzoyl-CoA ([1]; listed as bsKASIIIb): destabilized the bsKASIIIb protein | Thermal shift: increase in Tm with hexanoyl-CoA ([1]; listed as bsKASIIIb): destabilized the bsKASIIIb protein | Specific Activity with Isobutyryl-CoA ([5]; n.d. = not detectable): 279 ± 8 nmol/min/mg | Melting temperature (Tm) without ligand [6]: 48.7 ± 0.24 °C | Melting temperature (Tm) without ligand ([6]; listed as bsKASIIIb): ~48.7 °C

B3: KASIII from Bacteroides vulgatus: KASIII from Bacteroides vulgatus, GenBank ABR38167.1 (protein, UniProt A6KXK3 1-334, looked up)
Beta-ketoacyl-[acyl-carrier-pr …: MEKINAVITGVGGYVPDYVLTNEEISRMVDTNDEWIMTRIGVKERRILNEEGLGTSYMARKAAKQLMQKTASNPDDIDAVIVATTTPDYHFPSTASILCDKLGLKNAFAFDLQAACCGFLYLMETAASLIASGRHKKIIIVGADKMSSMVNYQDRATCPIFGDGAAACMVEATTEDYGIMDSILRTDGKGLPFLHMKAGGSVCPPSYFTVDHKMHYLYQEGRTVFKYAVSNMSDITATIAEKNGLNKDNIDWVIPHQANLRIIDAVASRLEVPLEKVMINIQRYGNTSGATLPLCLWDYEKQLKKGDNLIFTAFGAGFTYGAVYVKWGYDGSKR
Fatty acid content: Anteiso-fatty acids [7]: 70.43 mole % | Fatty acid content: Even-number iso-fatty acids [7]: 1.73 mole % | Fatty acid content: Even-number normal fatty acids [7]: 9.51 mole % | Fatty acid content: Odd-number iso-fatty acids [7]: 18.24 mole % | Fatty acid content: Odd-number normal fatty acids [7]: 0.09 mole % | Substrate preference in the spectrophotometric assay ([5]; acetyl-CoA, isobutyryl-CoA and 3-hydroxybutyryl-CoA tested): higher preference for isobutyryl-CoA and 3-hydroxybutyryl-CoA as compared to acetyl-CoA
